The target of the assay is T1, Di13_B2L2B4, cyclic pseudo-dihedral B component (construct number 2 of Table 3).
T1 construct: also called cyclic B
The assay can be described thus: negative stain TEM, unlabelled construct.

B1: A component of design #13 (D3 homooligomer, designed from 1d2t) (designed binder)
chain: MGHHHHHHGGLALVATGNDTTTKPDLYYLKNSEAINSLALLPPPPAVGSIAFLNDQAMYEQGRLLRNTERGKLAAEDANLSSGGVANAFSGAFGSPITEKDAPALHKLLTNMIEDAGDLATRSAKDHYMRIRPFAFYGVSTCNTTEQDKLSKNGSYPSGHTSIGWATALVLAEINPQRQNEILKRGYELGQSRVICGYHWQSDVDAARVVGSAVVATLHTNPEFQAQLIKAKIEFKQHQKEL
notes: also called component A; dihedral A
With B1, the binding result was “binds”.

For the origin of these results see patent publication US20230287402A1 (University of Washington, published 2023).
